Test results reported in publication PMC3170320, “Minimal Antizyme Peptide Fully Functioning in the Binding and Inhibition of Ornithine Decarboxylase and Antizyme Inhibitor” (PLoS ONE, 2011).

Biological target: human ornithine decarboxylase, wild type (human) (UniProt P11926)
Sequence (P11926 whole entry): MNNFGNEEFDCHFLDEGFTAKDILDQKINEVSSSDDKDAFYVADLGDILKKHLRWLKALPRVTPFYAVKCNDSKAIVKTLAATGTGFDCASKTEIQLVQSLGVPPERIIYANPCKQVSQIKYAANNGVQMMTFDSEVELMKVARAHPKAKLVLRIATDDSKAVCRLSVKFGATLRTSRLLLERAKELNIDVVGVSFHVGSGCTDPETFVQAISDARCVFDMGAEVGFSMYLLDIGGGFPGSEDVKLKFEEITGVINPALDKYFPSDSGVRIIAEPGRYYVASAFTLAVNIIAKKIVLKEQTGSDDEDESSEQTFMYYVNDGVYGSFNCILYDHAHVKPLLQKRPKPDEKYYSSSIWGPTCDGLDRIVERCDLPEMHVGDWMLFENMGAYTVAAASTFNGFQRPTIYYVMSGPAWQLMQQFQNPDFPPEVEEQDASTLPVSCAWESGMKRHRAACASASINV

human antizyme peptide AZ_87-228, sequence (P54368 87-228): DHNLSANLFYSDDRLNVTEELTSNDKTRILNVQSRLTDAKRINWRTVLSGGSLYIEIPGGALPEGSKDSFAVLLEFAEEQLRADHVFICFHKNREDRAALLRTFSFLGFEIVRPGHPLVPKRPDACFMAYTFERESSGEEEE
human antizyme peptide AZ_126-228, sequence (P54368 126-228): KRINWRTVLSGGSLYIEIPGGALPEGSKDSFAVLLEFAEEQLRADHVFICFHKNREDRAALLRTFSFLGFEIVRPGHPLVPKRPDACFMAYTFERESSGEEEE
human antizyme peptide AZ_114-228, sequence (P54368 114-228): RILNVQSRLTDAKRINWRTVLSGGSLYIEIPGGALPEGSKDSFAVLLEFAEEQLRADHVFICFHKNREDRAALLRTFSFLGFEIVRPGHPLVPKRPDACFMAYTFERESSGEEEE
human antizyme peptide AZ_100-124, sequence (P54368 100-124): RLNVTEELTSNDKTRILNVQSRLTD
human antizyme peptide AZ_100-135, sequence (P54368 100-135): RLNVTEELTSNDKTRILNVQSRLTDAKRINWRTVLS
human antizyme peptide AZ_95-169, sequence (P54368 95-169): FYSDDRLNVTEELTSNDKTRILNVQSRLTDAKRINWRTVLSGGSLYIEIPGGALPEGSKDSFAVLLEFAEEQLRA
human antizyme peptide AZ_106-228, sequence (P54368 106-228): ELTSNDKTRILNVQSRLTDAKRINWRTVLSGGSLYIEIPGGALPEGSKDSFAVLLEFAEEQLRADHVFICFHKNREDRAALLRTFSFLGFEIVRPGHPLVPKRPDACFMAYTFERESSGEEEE

Substance	IC50 of inhibition of ODC enzyme activity (ODC 0.19 µM), without AZI
human antizyme peptide AZ_106-228 (from UniProt P54368 106-228) (domain or fragment)	0.37 µM
human antizyme peptide AZ_87-228 (from UniProt P54368 87-228) (domain or fragment)	0.17 µM
human antizyme peptide AZ_100-135 (from UniProt P54368 100-135) (domain or fragment)	0.86 µM
human antizyme peptide AZ_100-124 (from UniProt P54368 100-124) (domain or fragment)	0.82 µM

More lines, now with the values ahead:

IC50 of inhibition of ODC enzyme activity (ODC 0.19 µM), without AZI	Substance
1.19 µM	human antizyme peptide AZ_126-228 (from UniProt P54368 126-228) (domain or fragment)
0.97 µM	human antizyme peptide AZ_114-228 (from UniProt P54368 114-228) (domain or fragment)
0.37 µM	human antizyme peptide AZ_95-169 (from UniProt P54368 95-169) (domain or fragment)
